Data reported in patent publication US6645733B1, “Fluorescent intensity method for assaying binding between proteins or peptides” (Ingeneus Corporation, priority 1999, dated 2003).
No end group written: not given here. fluorescein = fluorescein label at the amino-terminal end; Flu = fluorescein

T1: human AT1 receptor (Homo sapiens, UniProt P30556)
T1 construct: purchased NEN Life Science Products Inc., Boston, Mass; host or cells: Chinese hamster ovary (CHO) cells, purified membrane preparation
T1 sequence (P30556 1-359): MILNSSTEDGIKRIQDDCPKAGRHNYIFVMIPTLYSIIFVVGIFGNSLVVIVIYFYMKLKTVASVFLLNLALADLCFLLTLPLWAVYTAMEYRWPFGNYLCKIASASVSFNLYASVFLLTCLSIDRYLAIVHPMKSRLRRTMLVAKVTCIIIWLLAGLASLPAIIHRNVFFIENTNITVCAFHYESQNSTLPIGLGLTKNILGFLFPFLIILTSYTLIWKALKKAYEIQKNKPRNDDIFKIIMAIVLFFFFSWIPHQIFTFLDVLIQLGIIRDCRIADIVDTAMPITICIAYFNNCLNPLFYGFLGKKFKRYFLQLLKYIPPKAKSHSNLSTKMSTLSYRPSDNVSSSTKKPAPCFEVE

T2: Cloned human angiotensin II AT1 receptor (purified membrane preparation derived from CHO cells) (human, UniProt P30556 1-359)
T2 construct: whole, on cells; Used as a membrane preparation, not intact cells; also called human AT1 receptor
T2 sequence (looked up): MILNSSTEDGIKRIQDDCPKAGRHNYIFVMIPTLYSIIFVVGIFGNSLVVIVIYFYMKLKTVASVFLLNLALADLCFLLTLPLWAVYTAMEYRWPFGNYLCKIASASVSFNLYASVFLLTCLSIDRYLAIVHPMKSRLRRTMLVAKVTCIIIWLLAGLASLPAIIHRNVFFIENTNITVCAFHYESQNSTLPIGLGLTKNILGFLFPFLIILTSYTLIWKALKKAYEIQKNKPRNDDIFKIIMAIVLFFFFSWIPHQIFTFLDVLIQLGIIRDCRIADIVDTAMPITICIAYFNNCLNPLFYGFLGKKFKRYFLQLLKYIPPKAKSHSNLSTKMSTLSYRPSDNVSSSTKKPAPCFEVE


Experiments:
human AT1 receptor = target: T1, human AT1 receptor; assay: Flu-AII:AT1 fluorescent intensity quenching binding assay; details: 0.005, 0.01, 0.02 and 0.05 units AT1 receptor, 10 nM probe
[1] = target: T2, Cloned human angiotensin II AT1 …; assay: fluorescence intensity quenching assay in solution

Molecule	binding to AT1 receptor (fluorescent intensity versus probe alone) (human AT1 receptor)	binding result [1]
Flu-Asp-Arg-Val-Tyr-Ile (fluorescein-DRVYI) [Flu-AII(1-5)]	did not bind	–
Flu-DRVYI (Synthesized by AnaSpec; also called mutant Flu-AII(1-5); mutant Flu-AII)	–	no binding
